Experimental data from patent US20230054956A1 (VANDERBILT UNIVERSITY, published 2023).

B1: NORO-115 (antibody, V domains shown)
VH: QVQLVESGGGLVKPGGSLRLSCTASGITISGYYMSWIRQAPGKGLEWIVYINTSGRTIYYADSVKGRFSVSRDNAKESLYLQMDSLTVDDTGIYYCARDRLPASGSHWFHPWGQGTLVTVSS
VL: DIVMTQSPDSLAVSLGGRATINCKSSQSVLYTSDNKNYLAWYQQQPGQPPKLLISWASTRESGVPDRFSGSGSGTDFTLTISNLQAEDVAVYYCQQYYNSPLAFGGGTKVEIK
B2: NORO-329A (antibody, V domains shown)
VH: QVQLVESGGGLVKPGGSLRLSCAASGFTFSDYYMSWIRQAPGKGLEWISYISSSFGSTDYAGSMKGRFTISRDNAKNSLYLQMNSLRAEDTAVYYCARYNYYGSGSFVFDYWGQGTLVTVSS
VL: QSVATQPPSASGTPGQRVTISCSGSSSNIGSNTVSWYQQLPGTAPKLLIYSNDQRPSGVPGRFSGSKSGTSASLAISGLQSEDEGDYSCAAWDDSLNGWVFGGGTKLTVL

Columns and labels:
[1] = target: GII.4 Sydney 2012 virus-like particles (VLPs), based on strain AFV08795.1 (human norovirus GII.4 Sydney 2012, UniProt P54635 1-538, The particle is a multimeric assembly of VP1 with a little VP2 inside; one VP1 chain is given.); assay: indirect ELISA, VLP coated
[2] = target: GII.4 Houston 2002 (ABY27560.1) VLPs (human norovirus GII.4 Houston 2002, UniProt P54635 1-539); assay: ELISA, VLP

| Binder | EC50 [1] | fold higher binding EC50 than to GII.4 Sydney 2012 VLPs [2] |
| --- | --- | --- |
| B1 | 0.1 µg/mL | > 10 fold |
| B2 | 0.2 µg/mL | > 10 fold |
